# Experimental data reported in patent US20210221899A1 (published 2021).
# How the values were obtained:
# Assay in all cases: SPR (Biacore T200), 100 nM mAb on NGF chip, similarity to parent mAb
# canine NGF = molecular target: T1, canine NGF (canine, UniProt Q29074 110-229 (pig entry), limits assumed)
# T1 construct: The protein was secreted from CHO cells and purified; also called cNGF; canine β-NGF
# T1 chain: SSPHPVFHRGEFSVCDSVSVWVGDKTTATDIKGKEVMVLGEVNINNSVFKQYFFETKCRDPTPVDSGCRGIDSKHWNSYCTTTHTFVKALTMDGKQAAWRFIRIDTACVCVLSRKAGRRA
# Procedure, shortened: (§1)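 For each alanine substitution in heavy- or light-chain CDRs, binding to an NGF chip was measured by SPR (Biacore T200) with 100 nM antibody. The "% similarity score" is the fraction of the mutant's sensorgram points within the parent mAb's mean ±3 SD response-unit window, taken from four replicates.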
# rat NGF = molecular target: T2, rat NGF (rat, UniProt P25427 122-241)
# T2 construct: also called rN
# Procedure, shortened: as §1
# human NGF = molecular target: T3, human NGF (human, UniProt P01138 122-241)
# T3 construct: also called human Nerve Growth Factor; hN
# T3 chain: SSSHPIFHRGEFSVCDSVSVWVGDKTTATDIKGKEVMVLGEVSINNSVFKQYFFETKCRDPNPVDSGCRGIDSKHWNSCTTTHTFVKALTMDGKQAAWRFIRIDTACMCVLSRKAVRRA
# Procedure, shortened: as §1
# T2 sequence (P25427 122-241 limits assumed): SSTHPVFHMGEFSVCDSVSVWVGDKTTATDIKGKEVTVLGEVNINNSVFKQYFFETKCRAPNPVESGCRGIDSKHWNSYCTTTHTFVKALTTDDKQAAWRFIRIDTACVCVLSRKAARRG
Binder,Percent Similarity Score (KD on cN) (canine NGF) [%],Percent Similarity Score (KD on rN) (rat NGF) [%],Percent Similarity Score (KD on hN) (human NGF) [%]
"can48L2VL_I31A (antibody, V domains shown, CDR scanning mutant of ZTS-842 (48L2)) VH: EVQLVESGGDLVKPGGSLRLSCVASGFTFSTYGINWVRQAPGKGLQWVAYISSGGSSTYYADPVKGRFTISRDDAKNMLYLQMNSLRAEDTAIYYCAGSRYTYAYGGGYEFHFWGQGTLVTVSS VL: QAVLNQPASVSGALGQKVTISCSGSTMDIDAFGVSWYQQLPGKAPKLLVDSDGDRPSGIPDRFSGSRSGNSGTLTITGLQAEDEADYHCQSGDSTLGALAIFGGGTHVTVL",32.9,39.9,86.2
"can48L2VL_I101A (antibody, V domains shown, CDR scanning mutant of ZTS-842 (48L2)) VH: EVQLVESGGDLVKPGGSLRLSCVASGFTFSTYGINWVRQAPGKGLQWVAYISSGGSSTYYADPVKGRFTISRDDAKNMLYLQMNSLRAEDTAIYYCAGSRYTYAYGGGYEFHFWGQGTLVTVSS VL: QAVLNQPASVSGALGQKVTISCSGSTMDIDIFGVSWYQQLPGKAPKLLVDSDGDRPSGIPDRFSGSRSGNSGTLTITGLQAEDEADYHCQSGDSTLGALAAFGGGTHVTVL",97.3,99.6,100
"can48L2VL_L96A (antibody, V domains shown, CDR scanning mutant of ZTS-842 (48L2)) VH: EVQLVESGGDLVKPGGSLRLSCVASGFTFSTYGINWVRQAPGKGLQWVAYISSGGSSTYYADPVKGRFTISRDDAKNMLYLQMNSLRAEDTAIYYCAGSRYTYAYGGGYEFHFWGQGTLVTVSS VL: QAVLNQPASVSGALGQKVTISCSGSTMDIDIFGVSWYQQLPGKAPKLLVDSDGDRPSGIPDRFSGSRSGNSGTLTITGLQAEDEADYHCQSGDSTAGALAIFGGGTHVTVL",90,93.2,99.9
"can48L2VL_L99A (antibody, V domains shown, CDR scanning mutant of ZTS-842 (48L2)) VH: EVQLVESGGDLVKPGGSLRLSCVASGFTFSTYGINWVRQAPGKGLQWVAYISSGGSSTYYADPVKGRFTISRDDAKNMLYLQMNSLRAEDTAIYYCAGSRYTYAYGGGYEFHFWGQGTLVTVSS VL: QAVLNQPASVSGALGQKVTISCSGSTMDIDIFGVSWYQQLPGKAPKLLVDSDGDRPSGIPDRFSGSRSGNSGTLTITGLQAEDEADYHCQSGDSTLGAAAIFGGGTHVTVL",96.8,98.4,99.8
"can48L2VL_M27A (antibody, V domains shown, CDR scanning mutant of ZTS-842 (48L2)) VH: EVQLVESGGDLVKPGGSLRLSCVASGFTFSTYGINWVRQAPGKGLQWVAYISSGGSSTYYADPVKGRFTISRDDAKNMLYLQMNSLRAEDTAIYYCAGSRYTYAYGGGYEFHFWGQGTLVTVSS VL: QAVLNQPASVSGALGQKVTISCSGSTADIDIFGVSWYQQLPGKAPKLLVDSDGDRPSGIPDRFSGSRSGNSGTLTITGLQAEDEADYHCQSGDSTLGALAIFGGGTHVTVL",28,37.9,72.1
"can48L2VL_Q90A (antibody, V domains shown, CDR scanning mutant of ZTS-842 (48L2)) VH: EVQLVESGGDLVKPGGSLRLSCVASGFTFSTYGINWVRQAPGKGLQWVAYISSGGSSTYYADPVKGRFTISRDDAKNMLYLQMNSLRAEDTAIYYCAGSRYTYAYGGGYEFHFWGQGTLVTVSS VL: QAVLNQPASVSGALGQKVTISCSGSTMDIDIFGVSWYQQLPGKAPKLLVDSDGDRPSGIPDRFSGSRSGNSGTLTITGLQAEDEADYHCASGDSTLGALAIFGGGTHVTVL",94.4,98.7,99.9
"can48L2VL_S51A (antibody, V domains shown, CDR scanning mutant of ZTS-842 (48L2)) VH: EVQLVESGGDLVKPGGSLRLSCVASGFTFSTYGINWVRQAPGKGLQWVAYISSGGSSTYYADPVKGRFTISRDDAKNMLYLQMNSLRAEDTAIYYCAGSRYTYAYGGGYEFHFWGQGTLVTVSS VL: QAVLNQPASVSGALGQKVTISCSGSTMDIDIFGVSWYQQLPGKAPKLLVDADGDRPSGIPDRFSGSRSGNSGTLTITGLQAEDEADYHCQSGDSTLGALAIFGGGTHVTVL",100,100,100
"can48L2VL_S91A (antibody, V domains shown, CDR scanning mutant of ZTS-842 (48L2)) VH: EVQLVESGGDLVKPGGSLRLSCVASGFTFSTYGINWVRQAPGKGLQWVAYISSGGSSTYYADPVKGRFTISRDDAKNMLYLQMNSLRAEDTAIYYCAGSRYTYAYGGGYEFHFWGQGTLVTVSS VL: QAVLNQPASVSGALGQKVTISCSGSTMDIDIFGVSWYQQLPGKAPKLLVDSDGDRPSGIPDRFSGSRSGNSGTLTITGLQAEDEADYHCQAGDSTLGALAIFGGGTHVTVL",59.6,76.7,97.5
"can48L2VL_S94A (antibody, V domains shown, CDR scanning mutant of ZTS-842 (48L2)) VH: EVQLVESGGDLVKPGGSLRLSCVASGFTFSTYGINWVRQAPGKGLQWVAYISSGGSSTYYADPVKGRFTISRDDAKNMLYLQMNSLRAEDTAIYYCAGSRYTYAYGGGYEFHFWGQGTLVTVSS VL: QAVLNQPASVSGALGQKVTISCSGSTMDIDIFGVSWYQQLPGKAPKLLVDSDGDRPSGIPDRFSGSRSGNSGTLTITGLQAEDEADYHCQSGDATLGALAIFGGGTHVTVL",97.8,99.3,100
"can48L2VL_T95A (antibody, V domains shown, CDR scanning mutant of ZTS-842 (48L2)) VH: EVQLVESGGDLVKPGGSLRLSCVASGFTFSTYGINWVRQAPGKGLQWVAYISSGGSSTYYADPVKGRFTISRDDAKNMLYLQMNSLRAEDTAIYYCAGSRYTYAYGGGYEFHFWGQGTLVTVSS VL: QAVLNQPASVSGALGQKVTISCSGSTMDIDIFGVSWYQQLPGKAPKLLVDSDGDRPSGIPDRFSGSRSGNSGTLTITGLQAEDEADYHCQSGDSALGALAIFGGGTHVTVL",94.9,99.4,99.6
"can9L12VH_I50A (antibody, V domains shown) VH: EVQLVESGGDLVKPGGSLRLSCVASGFTFSSHGMHWVRQSPGKGLQWVAVANSGGSSTYYTDAVKGRFTISRDNAKNTVYLQMNSLRAEDTAMYYCAKESVGGWEQLVGPHFDYWGQGTLVIVSS VL: QSVLTQPTSVSGSLGQRVTISCSGSTNNIGILGASWYQLFPGKAPKLLVYGNGNRPSGVPDRFSGADSGDSVTLTITGLQAEDEADYYCQSFDTTLGAHVFGGGTHLTVL",100,92,96.6
"can48L2VL_T26A (antibody, V domains shown, CDR scanning mutant of ZTS-842 (48L2)) VH: EVQLVESGGDLVKPGGSLRLSCVASGFTFSTYGINWVRQAPGKGLQWVAYISSGGSSTYYADPVKGRFTISRDDAKNMLYLQMNSLRAEDTAIYYCAGSRYTYAYGGGYEFHFWGQGTLVTVSS VL: QAVLNQPASVSGALGQKVTISCSGSAMDIDIFGVSWYQQLPGKAPKLLVDSDGDRPSGIPDRFSGSRSGNSGTLTITGLQAEDEADYHCQSGDSTLGALAIFGGGTHVTVL",97.3,98,99.8
"can9L12VH_D113A (antibody, V domains shown) VH: EVQLVESGGDLVKPGGSLRLSCVASGFTFSSHGMHWVRQSPGKGLQWVAVINSGGSSTYYTDAVKGRFTISRDNAKNTVYLQMNSLRAEDTAMYYCAKESVGGWEQLVGPHFAYWGQGTLVIVSS VL: QSVLTQPTSVSGSLGQRVTISCSGSTNNIGILGASWYQLFPGKAPKLLVYGNGNRPSGVPDRFSGADSGDSVTLTITGLQAEDEADYYCQSFDTTLGAHVFGGGTHLTVL",100,100,100
